Data from patent US20180362652A1.

What was measured:
human C1q (human) [1] = target: human C1q (human) (UniProt P02745); experiment: C1q ELISA: antibody coated in a dilution series, human C1q at 2 µg/mL, read at 450 nm; column C (midpoint, the C value of paragraph 430) of the printed 4-parameter fit; the axis reads Concentration with no unit, the unit of the coated antibody is from the legend paragraph 61; A 0.06, B 2.093, D 1.573, R^2 0.997
human C1q (human) [2] = target: human C1q (human) (UniProt P02745); experiment: C1q ELISA: antibody coated in a dilution series, human C1q at 2 µg/mL, read at 450 nm; fit of a flat curve; the unit is from the legend paragraph 61, none on the axis; A 0.06, B 41.873, D 0.09, R^2 0.735
[3] = target: human BDCA2 (full-length, cell surface) (human) (UniProt Q8WTT0); experiment: FACS dot plot (SSC-H against FL4-H) of the CHO cells with lower BDCA2 expression used in FIG 22B, stained with APC-labelled AC144; gate from about 2x10^1 to 10^4
[4] = target: human BDCA2 (full-length, cell surface) (human) (UniProt Q8WTT0); experiment: FACS dot plot (SSC-H against FL4-H) of the CHO cells EAG2456 T1F2 Clone 34.16.7 with high BDCA2 expression, stained with APC-labelled AC144; cells spread from about 10^1 to 10^4

Chain of human BDCA2 (full-length, cell surface) (human) (Q8WTT0 whole entry): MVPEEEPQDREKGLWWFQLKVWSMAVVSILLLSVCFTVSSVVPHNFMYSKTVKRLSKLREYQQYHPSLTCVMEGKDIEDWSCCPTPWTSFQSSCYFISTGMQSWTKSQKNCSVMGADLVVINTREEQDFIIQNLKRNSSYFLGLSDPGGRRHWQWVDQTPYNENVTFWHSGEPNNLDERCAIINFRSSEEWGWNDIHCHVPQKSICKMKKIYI
Chain of human C1q (human) (P02745 23-245 limits assumed, chain 1 of 3): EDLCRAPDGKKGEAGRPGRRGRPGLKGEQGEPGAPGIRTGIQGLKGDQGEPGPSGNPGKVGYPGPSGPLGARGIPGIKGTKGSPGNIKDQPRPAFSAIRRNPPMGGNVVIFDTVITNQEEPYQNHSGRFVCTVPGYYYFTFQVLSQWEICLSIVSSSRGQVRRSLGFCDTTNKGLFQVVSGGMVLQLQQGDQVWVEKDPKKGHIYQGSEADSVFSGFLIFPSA
Chain of human C1q (human) (P02746 28-253 limits assumed, chain 2 of 3, further chain): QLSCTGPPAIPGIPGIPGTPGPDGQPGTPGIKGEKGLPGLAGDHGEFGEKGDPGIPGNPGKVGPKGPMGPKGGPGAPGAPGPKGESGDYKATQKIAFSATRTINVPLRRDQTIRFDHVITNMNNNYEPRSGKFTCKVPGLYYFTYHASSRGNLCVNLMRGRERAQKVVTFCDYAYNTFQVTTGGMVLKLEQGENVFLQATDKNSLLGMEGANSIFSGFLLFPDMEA
Chain of human C1q (human) (P02747 29-245 limits assumed, chain 3 of 3, further chain): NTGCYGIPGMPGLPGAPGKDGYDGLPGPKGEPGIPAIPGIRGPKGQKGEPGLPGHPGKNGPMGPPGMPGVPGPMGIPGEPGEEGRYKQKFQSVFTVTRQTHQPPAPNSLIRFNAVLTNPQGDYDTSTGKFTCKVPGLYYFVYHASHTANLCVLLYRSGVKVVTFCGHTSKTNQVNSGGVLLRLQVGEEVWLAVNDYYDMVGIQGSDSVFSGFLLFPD
Chain of 5C8 control (antibody) (heavy): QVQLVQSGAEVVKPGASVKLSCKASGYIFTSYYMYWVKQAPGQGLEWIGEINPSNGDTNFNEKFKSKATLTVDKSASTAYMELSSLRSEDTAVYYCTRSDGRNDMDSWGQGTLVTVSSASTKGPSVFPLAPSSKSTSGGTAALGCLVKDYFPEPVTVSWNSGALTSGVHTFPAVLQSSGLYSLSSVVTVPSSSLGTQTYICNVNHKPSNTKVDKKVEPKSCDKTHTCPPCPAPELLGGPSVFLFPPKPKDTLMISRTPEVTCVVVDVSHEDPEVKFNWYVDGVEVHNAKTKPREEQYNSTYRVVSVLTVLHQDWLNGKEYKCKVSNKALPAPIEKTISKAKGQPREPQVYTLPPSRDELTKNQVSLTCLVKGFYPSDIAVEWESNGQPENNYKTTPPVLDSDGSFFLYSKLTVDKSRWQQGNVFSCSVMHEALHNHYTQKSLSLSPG
Chain of 5C8 control (antibody) (light): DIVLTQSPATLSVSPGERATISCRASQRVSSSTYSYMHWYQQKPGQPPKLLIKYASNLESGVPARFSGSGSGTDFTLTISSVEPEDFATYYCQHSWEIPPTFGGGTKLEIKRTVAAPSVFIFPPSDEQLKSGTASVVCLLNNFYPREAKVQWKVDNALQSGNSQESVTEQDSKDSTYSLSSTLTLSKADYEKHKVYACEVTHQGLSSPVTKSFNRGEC

5C8 control (antibody) showed an EC50 (human C1q (human) [1]) of 2.21 µg/mL.
5c8 G4P/G1agly (antibody) was tested, and the C of the 4-parameter fit (midpoint), curve flat (human C1q (human) [2]) was 0.062 µg/mL.
“anti-human BDCA2 AC144 mAb (Miltenyi Biotec) (antibody)” showed a frequency printed in the gate BDCA2 (percent of cells) [3] of 87.8 and a frequency printed in the FL4-positive gate (percent of cells) [4] of 99.4.
